{
  "source": "paper PMC6044951",
  "proteins": {"B1": {"name": "BcsA-BcsB (Cereibacter sphaeroides 2.4.1) (protein)", "chain": "MTVRAKARSPLRVVPVLLFLLWVALLVPFGLLAAAPVAPSAQGLIALSAVVLVALLKPFADKMVPRFLLLSAASMLVMRYWFWRLFETLPPPALDASFLFALLLFAVETFSISIFFLNGFLSADPTDRPFPRPLQPEELPTVDILVPSYNEPADMLSVTLAAAKNMIYPARLRTVVLCDDGGTDQRCMSPDPELAQKAQERRRELQQLCRELGVVYSTRERNEHAKAGNMSAALERLKGELVVVFDADHVPSRDFLARTVGYFVEDPDLFLVQTPHFFINPDPIQRNLALGDRCPPENEMFYGKIHRGLDRWGGAFFCGSAAVLRRRALDEAGGFAGETITEDAETALEIHSRGWKSLYIDRAMIAGLQPETFASFIQQRGRWATGMMQMLLLKNPLFRRGLGIAQRLCYLNSMSFWFFPLVRMMFLVAPLIYLFFGIEIFVATFEEVLAYMPGYLAVSFLVQNALFARQRWPLVSEVYEVAQAPYLARAIVTTLLRPRSARFAVTAKDETLSENYISPIYRPLLFTFLLCLSGVLATLVRWVAFPGDRSVLLVVGGWAVLNVLLVGFALRAVAEKQQRRAAPRVQMEVPAEAQIPAFGNRSLTATVLDASTSGVRLLVRLPGVGDPHPALEAGGLIQFQPKFPDAPQLERMVRGRIRSARREGGTVMVGVIFEAGQPIAVRETVAYLIFGESAHWRTMREATMRPIGLLHGMARILWMAAASLPKTARDFMDEPARRRRRHEEPKEKQAHLLAFGTDFSTEPDWAGELLDPTAQVSARPNTVAWGSN"}},
  "substrate": "O=c1ccn([C@@H]2O[C@H](CO[P@@](=O)(O)O[P@@](=O)(O)O[C@H]3O[C@H](CO)[C@@H](O)[C@H](O)[C@H]3O)[C@@H](O)[C@H]2O)c(=O)[nH]1",
  "experiment": "purified protein",
  "conditions": "30 °C, Michaelis-Menten fit",
  "data": [
    {"protein": "B1", "values": [
      {"measurement": "Km", "result": "340 ± 70", "unit": "µM"},
      {"measurement": "kcat", "result": "0.43 ± 0.17", "unit": "s⁻¹"}
    ]}
  ]
}
